The text below walks through data of patent US20230365705A1 (DYNAMICURE BIOTECHNOLOGY, published 2023).

The IC50 is the concentration needed to halve the response being measured. Read a low IC50 as inhibition by little substance. As a reminder, the EC50 is the concentration at which the effect is half-maximal. The low end stands for greater potency, the high end for weaker potency. The term Kd denotes the equilibrium constant for the complex coming apart. Usually koff stands for the first-order rate constant of dissociation. As a reminder, the kon is the second-order rate constant of association.

For test [1], the target named is T1, Human CD93 on cells (human CD93 expressing CHO cells; HUVEC, U937 and KG1a cells) (human, UniProt Q9NPY3 22-652).
T1 construct: whole, on cells; also called hCD93 expressing CHO cells; hCD93 CHO cells
T1 sequence (looked up): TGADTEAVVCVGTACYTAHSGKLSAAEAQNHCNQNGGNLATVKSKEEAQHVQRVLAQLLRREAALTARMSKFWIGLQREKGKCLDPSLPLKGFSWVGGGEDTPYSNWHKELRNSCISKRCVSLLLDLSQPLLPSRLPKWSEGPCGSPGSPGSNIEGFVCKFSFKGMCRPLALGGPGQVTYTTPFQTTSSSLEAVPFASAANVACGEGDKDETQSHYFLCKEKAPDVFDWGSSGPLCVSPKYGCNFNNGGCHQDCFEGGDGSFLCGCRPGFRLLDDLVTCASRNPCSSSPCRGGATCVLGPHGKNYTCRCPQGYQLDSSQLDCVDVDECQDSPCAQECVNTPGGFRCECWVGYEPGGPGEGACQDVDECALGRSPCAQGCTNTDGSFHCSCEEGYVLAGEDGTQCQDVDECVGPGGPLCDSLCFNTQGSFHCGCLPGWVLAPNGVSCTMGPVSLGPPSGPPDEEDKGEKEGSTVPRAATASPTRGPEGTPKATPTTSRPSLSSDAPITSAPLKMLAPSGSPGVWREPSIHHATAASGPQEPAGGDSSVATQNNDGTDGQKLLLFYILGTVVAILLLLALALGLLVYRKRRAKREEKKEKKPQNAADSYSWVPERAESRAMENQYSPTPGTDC
Nature of the test: flow cytometry blocking assay, CHO-hCD93 cells; blocked ligand hMMRN2 495-674 at 0.1 ug/ml; antibody stored 2 weeks at 40 C. The procedure: Then the cells were incubated with hMMRN2₄₉₅₋₆₇₄ at 0.1 μg/ml. […] After washing with FACS buffer twice, the samples were analyzed, and data acquired in NovoCyte Flow. Recombinant his tagged hMMRN2₄₉₅₋₆₇₄ was produced internally in E. Coli following routine procedure.
Background: A flow cytometer gives signals particle by particle.

Test [2] concerns the target T1, Human CD93 on cells (human CD93 …). Nature of the test: flow cytometry titration, CHO-hCD93 cells; antibody stored 4 weeks at 40 C. As for the experimental part:
Human CD93 expressing CHO cells were detached by incubation with TrypLE reagents (Thermo Fisher), which preserves the integrity of CD93 on the cell surface. Then the cells were incubated with serial diluted anti-CD93 antibodies for 30 minutes in 4° C. After washing by FACS buffer, the cells were incubated with Alexa Fluor 647 conjugated anti-human IgG (Jackson ImmunoResearch) for 30 minutes at 4° C. After washing by FACS buffer twice, the samples were acquired in NovoCyte Flow Cytometer and analyzed by NovoExpress software.

The target is the same in test [3]. Put plainly: flow cytometry blocking assay, CHO-hCD93 cells; blocked ligand hMMRN2 495-674 at 0.1 ug/ml. The procedure: Then the cells were incubated with hMMRN2₄₉₅₋₆₇₄ at 0.1 μg/ml. […] Then the cells were washed with FACS buffer and incubated with APC-conjugated anti-His tag antibody at 1 μg/ml for 30 minutes at 4° C. After washing with FACS buffer twice, the samples were analyzed and data acquired in NovoCyte Flow. Recombinant his tagged […] was produced internally in Expi_HEK following routine procedure.

For test [4] the target is unchanged. Nature of the test: summary table, column FACS (HUVEC cells); 4 weeks at 40 C. The procedure:
HUVEC cells were detached by incubation with TrypLE reagents (Thermo Fisher), which preserves the integrity of CD93 on the cell surface. Then the cells were incubated with serial diluted anti-CD93 antibodies for 30 minutes at 4° C. After washing by FACS buffer, the cells were incubated with Alexa Fluor 647 conjugated anti-human IgG (Jackson ImmunoResearch) for 30 minutes in 4° C. After washing by FACS buffer twice, the samples were acquired in NovoCyte Flow Cytometer and analyzed by NovoExpress software.

In test [5] the target is T2, Human CD93 recombinant protein (Sino Biological Inc, Catalog #12589-H08H) (human, UniProt Q9NPY3 22-580).
T2 construct: Biotinylated (EZ-LINK NHS-PEG4 biotin) in the BLI assays; also called hCD93; His-tagged human CD93
T2 sequence (looked up): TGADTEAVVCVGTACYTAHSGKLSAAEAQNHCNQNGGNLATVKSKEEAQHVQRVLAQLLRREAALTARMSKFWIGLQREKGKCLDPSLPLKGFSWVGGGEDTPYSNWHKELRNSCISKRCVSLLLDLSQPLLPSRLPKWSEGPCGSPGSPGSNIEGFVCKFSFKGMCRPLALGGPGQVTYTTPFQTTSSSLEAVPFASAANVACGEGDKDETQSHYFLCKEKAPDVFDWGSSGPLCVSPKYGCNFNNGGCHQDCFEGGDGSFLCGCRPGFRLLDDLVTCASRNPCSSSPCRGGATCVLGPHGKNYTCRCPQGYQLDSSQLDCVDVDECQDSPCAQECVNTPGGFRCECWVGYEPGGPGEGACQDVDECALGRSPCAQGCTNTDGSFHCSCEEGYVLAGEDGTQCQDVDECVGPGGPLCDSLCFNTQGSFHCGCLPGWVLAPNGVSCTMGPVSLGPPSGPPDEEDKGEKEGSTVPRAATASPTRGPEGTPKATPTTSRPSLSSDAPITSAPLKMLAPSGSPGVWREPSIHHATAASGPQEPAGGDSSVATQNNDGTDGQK
Put plainly: BLI (Octet QKe), biotinylated human CD93 on streptavidin biosensors; antibody stored 2 weeks at 40 C. As for the experimental part: The binding affinity of anti-CD93 antibodies was determined with bio-layer interferometry using Octet QKe (Fortebio). […] Human CD93 recombinant protein (Sino Biological Inc, Catalog #12589-H08H) was biotinylated using EZ-LINK NHS-PEG4 biotin (Thermo Fisher Scientific). Streptavidin biosensors (Fortebio) were used to load biotinylated CD93 protein (300 seconds in 5 μg/ml). Baseline was stabilized for 60 seconds in 1× kinetics buffer (Fortebio) before anti-CD93 antibodies, at a serial dilution, were allowed to associate for 300 seconds with captured protein. Then the sensors were dissociated in 1× kinetics buffer for 600 seconds. […] (FIG. 42).
For orientation: BLI is a label-free optical method that tracks binding on a fibre tip over time.

B1: h7F3 (humanized 7F3, VH3+VL3) (antibody, human IgG1, V domains shown)
VH: QVQLVQSGAEVKKPGASVKVSCKASGYTFTDYEMHWVRQAPGQGLEWMGGIDPETGDTAYNQNFKGRVTMTTDTSTSTAYMELRSLTSDDTAVYYCTNYGNLYYYAMDYWGQGTSVTVSS
VL: EIVLTQSPSSLSASVGDRVTITCRASSSVSSSYLHWYQQKPGKAPKLLIYSTSNLAFGVPSRFSGSGSGTSYTFTISSLQPEDIATYYCQQYSGYPLTFGSGTKLEIK
notes: also called humanized 7F3-hIgG1
On to B1, for which the IC50 in test [1] and in test [3] was 0.133 nM throughout. The EC50 in test [2] was found to be 0.195 nM; in test [4] it was 1.12 nM.

B2: h16E4 (humanized 16E4, VH4+VL6) (antibody, V domains shown)
VH: QVQLVQSGAEVKKPGASVKVSCKASGYTFTSYWMHWVRQAPGQGLEWMGEIDPSASYTYYNQKFKGRVTMTRDKSSSTVYMELSSLTSEDSAVYYCARSVYYGNKYFDVWGAGTTVTVSS
VL: DIQMTQSPSTLSASVGDRVTITCKASQSVDYAGDSYMNWYQQKPGKAPKLLIYAASNLESGVPSRFSGSGSGTEFTLTISSLQPDDFATYYCQQTNEDPRTFGGGTKLEIK
notes: Detected with anti-human IgG, so a human Fc
For the molecule B2, in test [5], the dissociation constant (Kd) is 0.0204 nM, the koff worked out at 5.08e-06 s⁻¹ and the on-rate constant (kon) was 249000 M⁻¹ s⁻¹.
